The source of these data is patent US7019108B2, “Method and composition for inhibition of angiogenesis and tumor growth using compounds based on a sequence within MMP-2” (priority 2001, dated 2006).

No end group written: not given here.

Common to all, as to assay type: in vivo
Data set [1] relates to M21 human melanoma tumor cells. The experiment in a line: M21 human melanoma tumor growth in nude mice, systemic Pexstatin. The conditions noted are these: female nude mice, daily injections of 100 μg. As for the experimental part: M21 human melanoma tumor cells (2×10^6) were injected subcutaneously into female nude mice. Twenty four hours later the mice were treated daily with injections of 100 μg of Pexstatin MMP-2 peptide or PBS controls. Tumor sizes were monitored daily by caliper measurements. Data bars represent the mean tumor volume+the standard errors at each time point. Tumor volumes were estimated using the formula V=L2×W/2, V=volume, L=length, and W=width.

The subject of another data set is B16 melanoma tumor cells. The experiment in a line: Chick embryo experimental metastasis model, B16 melanoma. The conditions noted are these: 10 μg/embryo inoculated intravenously with the tumor cells, 12 day old chick embryos, 7 day incubation. As for the experimental part:
To examine the effects of Pexstatin on melanoma tumor metastasis in vivo, the chick embryo experimental metastasis model was utilized. Briefly, B16 melanoma tumor cells (2.5×10^4) were inoculated intravenously with Pexstatin (10 μg/embryo) or a control peptide in 12 day old chick embryos. In addition, a no treatment control was also added (NT). The Embryos were allowed to incubate for a total of 7 days. At the end of a 7 day incubation period the embryos were sacrificed and the lungs were removed for analysis. The number of melanoma lung lesions were counted for each lobe of the lung. Data bars represent the mean+the standard errors of the metastatic lung lesions from 5 to 10 embryos per condition.

The subject of data set [2] is βFGF induced angiogenesis. Briefly: βFGF induced angiogenesis in the chick CAM assay, systemic Pexstatin. The conditions noted are these: 3 day incubation. As for the experimental part:
A). Filter discs saturated with βFGF were placed on the CAMs of 10 day old chick embryos. Twenty four hours later, the embryos received a single intravenous injection with 50 μg of Pexstatin, control peptide or PBS. At the end of a 3 day incubation period the filter discs and surrounding CAM tissue were removed and angiogenesis was quantified by counting the number of blood vessel branch points within the area of the filter disc.
B). FIG. 4 illustrates the quantification of the angiogenesis experiment with Pexstatin. Data bars represent the mean+standard errors of 5 to 10 embryos per condition. The angiogenesis index is equal to the number of branch points from experimentally treated embryos minus the number of branch points from CAMs in the absence of βFGF.

Data set [3] relates to CS-1 melanoma tumor cells. The experiment in a line: CS-1 melanoma tumor growth on the CAM of chick embryos, systemic Pexstatin. As for the experimental part:
CS-1 melanoma tumor cells (5×10^6) were inoculated on the Chorioallantoic Membranes (CAMs) of 10 day old chick embryos. Twenty four hours latter the embryos received a single intravenous injection of 50 μg of Pexstatin peptide or PBS control. At the end of a 7 day incubation period the resulting tumors were resected and wet weights determined. Data bars represent the mean±the standard errors of the tumor weight from 5 to 10 embryos per condition.

In the case of “CIFAGDKFWRC (cysteine pairing not given here) [Pexstatin, eleven amino acid peptide based on MMP-2 positions 582–590 flanked by cysteine residues]”, the “toxic side effects during the assay period” value in data set [1] was “no toxic side effects were noted”; in data set [3] (chick embryo, single i.v. 50 μg, 7 day incubation), “no toxic side effects were noted”. In the data set on B16 melanoma tumor cells, the “inhibition of experimental B16 melanoma metastasis (lung lesions) as compared to controls” value was “approximately 80%”. Also, the “toxic side effects in the embryos during the assay period” value in data set [2] (chick embryo, single i.v. 50 μg) is “no toxic side effects were noted”. Moreover, in data set [2] (single intravenous injection of 50 μg, chick CAM), the “inhibition of βFGF induced angiogenesis (angiogenesis index, branch points) as compared to controls” value is “approximately 90%”. In addition, the “inhibition of CS1 melanoma tumor growth (tumor wet weight) as compared to controls” value in data set [3] (single intravenous injection of 50 μg, 24 h after inoculation, within 7 days, chick embryo CAM) was “approximately 60%”.
